Columns and labels:
Test in all cases: flow cytometry on cells
[1] = target: RMF peptide on HLA-A*02 of peptide-pulsed T2 cells (Homo sapiens, HLA-A*02:01, strain)
[2] = target: MED13L peptide … on HLA-A*02:01 of peptide-pulsed T2 cells (Homo sapiens, HLA-A*02:01 (T2 cells))
[3] = target: PIGQ peptide … on HLA-A*02:01 of peptide-pulsed T2 cells (Homo sapiens, HLA-A*02:01 (T2 cells))

binding result [1]: binds | binding result [2]: binds | binding result [3]: binds
B1: ESK1 full-length human IgG1 antibody (antibody, V domains shown)
VH: QMQLVQSGAEVKEPGESLRISCKGSGYSFTNFWISWVRQMPGKGLEWMGRVDPGYSYSTYSPSFQGHVTISADKSTSTAYLQWNSLKASDTAMYYCARVQYSGYYDWFDPWGQGTLVTVSS
VL: not shown
